From a protein production outcome set (Wang et al. 2014) come the findings set out here.

A short description of this data set: label from the status in PepcDB records.
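Note: failed if final PepcDB status was selected cloned or expressed and not failed if soluble or beyond.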

Consider “MRLIEQAIEKIESGQVTEGLTALEEAAKTANHEMKYTVAETYYELGHLDKAQAIIDELLMLYPDEGGLYTFAAEILIDLNKEDEAIEMLNEIKEQDPAFLQAQLLLADLYQLQSLDEVAEQKLLKAYEVAPDEPIISFGLGEFYLERGDYIKSIPHLKRAKHGGLTNDQVNVSLKLAEAYSGSGQFEEALPHYDEGLKQKLDPHGLFGYGYTAYLLGDYVLAIEQFQALKALDPDFYDPIPVFGEGFRRGKSFRGSNGCFKRGDDRGLEHHHHHH”, for which the protein production entry was “not failed”.

Consider “MRLKPLPSRPLLGGVLFFALVFAFAGINPWGGGHEGVWNAPREGGMALFALAALAGVLLERRGRGLSVGGGALLALLASAGFLLAGAASTLLSPQPIWSWTGYPSVGDGLRFWALGVAFAWAVFLALETRVLSPRGLFGALLLALGLHALAVFPQVVDWKLDYTQTQGQTYVRCFDRERTDCYENPNATASGIYRGQMPIGLTSHRGHAAGVLALLGLVAAGLYLRSPRPGLLLLFGLGALALWFTQTRGGWLALWGTLALLALGLTWKRPGRLRPALALFLVGALSYGLYLALGQMGVQEPRRFPELGASFAEANAYSSGRLELWRKALAALPLRPWLGWGFDGYARASPHAVDWNGEDRRFVPAALSLPVRLVQGEDRLFYLEDPTGLRLLAPAPYAKAHNLFLDLLLSVGVLGGAAYLLWLGAALRQASWAKLPFALAVAGYLLYGLTWYDSVHVTPLALLALGALVTREEVWRGA”, for which the protein production result is on record as “failed”.

For “MRLLPRETGDGDRPRVARSARPRAGSAVEGALSAAQRPLRHGAYPRRATSPVARVRMVFLALVATLFALPALAEPKFPPLSGRVVDEAQVLSPDVERDLSDKLAALETRTGHQLVVATVSSLQGYPIEDYGYRLGRTWGIGDKDKDDGAILLVAPNDRQVRIEVGYGLEPVLTDALSSVIIQSAILPKFRDGDLSGGIVAGADAMIEQLGLPPEEAKARVADAARPERHEARGSPIVGFLILLFIIFVFSSLFRGRRGGLGSALPWIILSALNNSGRGGGGWGGGGGGGFSGGGGSFGGGGSSGRW”, the protein production result is given as “failed”.

As for “MRLLYVIKKENPMDQMPNCPKCQSEYVYHDSINFVCPDCGNEWDNNEIQESDDDQLIVKDSNGNLLAEGDNVLLIKDLKLKGSSEVLKKGTKFKNIRLVNGDHNVDCGKIMLKSEFLKKA”, the protein production result is “failed”.

Regarding “MRLLYVIKKENPMDQMPNCPKCQSEYVYHDSINFVCPDCGNEWDNNEIQESDDDQLIVKDSNGNLLAEGDNVLLIKDLKLKGSSEVLKKGTKFKNIRLVNGDHNVDCGKIMLKSEFLKKALEHHHHHH”, the protein production entry was “not failed”.

Take “MRLPRQIRLPHLRDIGALLTDSAREWSRHRASSKGAALSLYMVFSLAPMLILVIAVAGAFFGEEAVRSELFSQVRDLTGERGAEVIQTVLASAHESGSGWLAALLSICVLVFSATTAFAELKASLDELWDVKEDKSGLQGLVRSRMLSFGLVLVLALFLLLSLTLNAALGAAKGYYGDLWSTSAFAMAADWLSNLFSFAVVTALFAVVYKLLPSKRIPWLDVIPGAIVTAALFLAGKWGIGLYLERGTAVSAYGAAGSLIALLLWIYYSAQIFFFGAVFTRQFAERFGNLRRAAPA”: the protein production entry was “not failed”.

Consider “MRLSAEQVVEVLRAAGESTRLRLLALLAAEELSVLELCRILDQSQPRVSRHLKLLAEAGLVERFPDGAWVFYRLAAKSPGRLLVEQALDLIDEGDETVQSDADKLAAVRAERSTDAQAYFARNAARWNEIRSLYVDEAEVEAAILRATGEGPFDEMVDLGAGAGRMLTLLGKRAANALGLDLSQQMLNIARDEVSKAGLTACELRHGDIFRTGLPGGCADLVTVHQVLHYLTDPATAVAEAARLVTPGGLLLIADFAPHGHEFLREVHQHRRLGFDDAEIVAWLQAAGLVLESNIALPPATAEGLTVKIWTARRPGKASLERSAA”, for which the protein production entry is “failed”.

For the sequence “MRLSFGITSKLFVALFALSMVVALAMGAAVRWRFDTNFLDYVNAREAERMAVFAQSIESVYAEHGNWGVLRNDRQAWYRLIRREIGRTHAGPFGGPRGDAEPVPPFAPPPGDVPPPGLPPPPPDAGDRPPQHPPGEGPGMHPPIWLLDAGRVPIVGDGPPPGPGSQWHALHHNGQTVGWLATPQRMHVPEGADQAFLAQQLRATWIIAALSVLLAAGVAILLARGVLAPMRRLAHATRRMAEGDYAARVDVHSGDEIGHLADDFNRLAETLEANQKMRRQLTADISHELRTPLAVLRGELEALEDGVRALTPASLTSLQAEVGTLSKLIDDLYELSLADVGALAFHMESIDLADTVCSAAQGFTPRLMDKRIALQLDLPTGPSRDAAIQGDPQRLRQLMQNLLENTLRYTDAGGTLRIHVHRAGAWWCLDVQDSAPGVPEAMLPRVFDRLFRADPSRGRAQGGAGLGLSLCQTIVQTHGGTIDARPSPLGGLWIAIRLPAANSSVADHDPDR”, the protein production result is given as “failed”.

“MRLTARSEPSSAPFPSGTGRQIGADCNGPSACQALQFTPFCPSRDNEMSDWSLDQARKTYSIPHWADGYFDVNDAGHVVVRPTADGPAVSLPEVVDAARAAGAKLPLLVRFPDILGQRLGKLQAAFAQAQADWDYAGGYTAVYPIKVNQHRGVAGTLASHHGEGFGLEAGSKPELMAVLALSRPGGLIVCNGYKDREYIRLALIGRKLGLQTFIVIEKPSELNLVLEEARALDVKPGLGVRMRLASLGAGKWQNSGGDKAKFGLSPRQVLDLWKSLRDTEYADSLNLLHFHMGSQISNVRDIANGMREATRYFVELSRLGAKISHVDVGGGLGIDYEGTRSRSYCSINYGLHSYASNIVQPLASACEEHGLPPPRIVTECGRAMTAHHAVLIANVSEVEQAPEGRVPDAHDDEPAAIRHLREIHDELDVRPAVELFQEAQHFHAEGLSAYALGQIDLTHRARIDDLFYAIAHGVRARLSFDEKSHRPVLDELNERLVDKYFVNFSVFESIPDVWAIDQVFPIVPIERLNEAPQRRGIIADMTCDSDGMVKTYVENESLDSSLPLHGLNPGESYRIGFFLVGAYQEILGDIHNLFGDTDAVEVAVDGTGYRIAQQRRGDTTDVMLDYVGYQLDTLRATYAERIAAAQLPPERAQELHDALEAGLTGYTYLSDEPLG”: the protein production result is “failed”.

In the case of “MRLTDQKRESIVQAAIAEFGDRGFEITSMDRIAARAEVSKRTVYNHFPSKEELFAEMLQRLWNCAPPQSEVVYRPLVSLREQLLELLWGKMRNLTDSSFLDLARVVVGATIHSPERAQVWLARINEREETFSAWIRAAQKDGRLKPVDPGFAATQMHALLKSFAFWPQVTFNAALLTPQEQSNVVESALNMFLGWYEIPG”, the protein production result is given as “not failed”.

Turning to “MRLTSKGRYAVTAMLDVALNSEAGPVPLADISERQGISLSYLEQLFSRLRKNGLVSSVRGPGGGYLLGKDASSIAVGEVISAVDESVDATRCQGKGGCQGGDKCLTHALWRDLSDRLTGFLNNITLGELVNNQEVLDVSGRQHTLEHHHHHH”, the protein production result was “not failed”.

Turning to “MRLTVDQALAQAIAAHRSGQLQDAERLYRAILDAAPGHADANHNLGVLAVGVGKPQAGLSFLKAALEINPAQGQFWVSYIDALIAAGLPAAARDHLEQAKRRGLTGDAVERLEKRLDPASQPPQALLDSVVAQYRSGNLAAAESQAHALTLSFPNHELGWKVLGAVFSVTGRSEESLASMRQALSLNPQDAETFKNLAILLLKLKRAEEAEAACRSALALAPDYPQVHLTLGNALIDLARAAEAEESFRQAIRLKPDYSEAHCNLGCALKLSGRLTEAETCFRRAIQLNPADAQAHNNLGDVFKDLGRFADAEAFYRAAIGLKPEYLEAHSNLLLCLNYFETSSPDTYLAEAKQYGSVASAAATPKFSAWSIQPEPRRLRVGFISGDLNSHPVGYFSESVFQHLDRDRFELFAFPTTPKTDALTSRISPFFAGWCPIFGMDDHAAATAIHTQGVHVLVDLSGHTADNRLPVFAFRPAPVQASWLGYFATTGLPEMDYFLGDRYMVTETEQQRFTETLWRLPETWLCLAPHERSIPINPPPVLTNGFMTFGCLGNLSKMNGEVVALWSQILRAVPESKLLLKAKPFVDAQVVADIQARFAREGVSSDRLILEGPSSRAEYFETYNRIDLVLDTFPYPGGTTSVDALWMGVPVLTLAGDRFLARLGESIARNAGQSAWVARDRADYLAKAVAFASVRDVAHDRPALRRSVLTTPLFDPERFARDFGDTLWGMWSQGRSHPLRKDAPCRS”, the protein production entry is on record as “failed”.

For “MRLTVWTYEGPPQVGAMRVATAMRGVHYVVHAPQGDSYADLLFTMIERRPGRPAVSYTSFQARDLGTDTAALFKTAAADAVARFQPEALLVGSSCTGELIQDDPGGLAKALGLSIPVIPLELPSYQRKENWGAAETFYRLVRTMAGPAAPAPGTPRAPRPAGQRPRCNLLGPTALGFRHRDDVQAVVALLGRMGVDVAVVAPLGASPADLARLGEADFNVVLYPEIADTAVRWLERAFGQPSVRTVPIGVGATRAFIAEVAAVAGVDPAPALAEESLRLPWWSRSVDSTYLTGKRVFIFGDATHAVAAARVATEEFGFEVVGLGTYAREYARELRACAGALGLEALITDDYLDVEAAIADAHPDLVLGTQMERHIAKRLGVPCAVISAPVHVQDFPARTAPQMGFDGANVLFDTWVHPLMMGLEEHLLMMFRDDFEFHGDAAPSHLSAHRPTGEAVGDAVGEPPAAPRDQAAPAATLDGSAAQSDPARTTPPGAPSWEDSAEKELRKVPFFVRGKARRNTERFAAERGLASISVETLYDAKAHFGR”, the protein production entry is given as “failed”.

As to “MRMEDEDYNTSISYGDEYPDYLDSIVVLEDLSPLEARVTRIFLVVVYSIVCFLGILGNGLVIIIATFKMKKTVNMVWFLNLAVADFLFNVFLPIHITYAAMDYHWVFGTAMCKISNFLLIHNMFTSVFLLTIISSDRCISVLLPVWSQNHRSVRLAYMACMVIWVLAFFLSSPSLVFRDTANLHGKISCFNNFSLSTPGSSSWPTHSQMDPVGYSRHMVVTVTRFLCGFLVPVLIITACYLTIVCKLQRNRLAKTKKPFKIIVTIIITFFLCWCPYHTLNLLELHHTAMPGSVFSLGLPLATALAIANSCMNPILYVFMGQDFKKFKVALFSRLVNALSEDTGHSSYPSHRSFTKMSSMNERTSMNERETGML”, the protein production entry is on record as “failed”.

Regarding “MRMNILLAFKAEPDAGMLAEKEWQAAQGNSGPDVSLLRSLLGADEQAAAALLLAQRKNGTSMSLTALSMGDERALHWLRYLMALGFEDAVLLETAADLRFAPEFVARHIAEWQYQNPLELIITGCQSSEGQNGQTPFLLAEMLGWPCFTQVERFTLDAPFITLEQRTENGLRCCRVRLPAVIAVRQCGEVALPVPGMRQRMAAGKAEIIRKTVAAEMPAMQCLQLARAEQRRGATLIDGQTVAEKAQKLWQYYLCQRMQP”, the protein production result is given as “failed”.

For the sequence “MRNGILYAILLYVFMFVLWFCFAYFIDTSTTIFNIPLWFFLSGILFPSIIFFWFVFLF”, the protein production result is listed as “failed”.

As to “MRNKQSLVFLASSLFLLILAPITSEAISNPSTNINEVNREIVEESANDQATSAPSHSETLEQEPSLETTTTTDNHPAETDQSTATLEPSEQQKDDGTSATESVIVEPQPRMLAAPYATSLPDDPNIIPIDKVFQEPIGNATSILEGGKLLQLNPAVKSQKGAIWSKKPISLLSDFTFKSYLYLGNEYANAGDGMTFTLTNDPRMSTTPQEVIGSPGMGIGAYSTKAGQPYVRNALSIEFDTYKNTGSSNRMDREISQDKGNGHLAFVTPKANNNNYTGEHSGVTVAPTYLSNGTWRMLTVHWNAATKALTYDLEGVGTNTYVVSDLNAQFGATTVYWGFTSSTGGKYQENALAMTQIPTNVTSQAALSVNGQEFSSAVEAVKNDQVRLRNTLNIDNDFIEDRQPQVSIDLPDELAYEENSLTIDGKKVAAKDLTQTGNHLTIALNDYLVLKKDMMIELKTTLQDNTPEKVLTMNFDYYEEGTLLQKSNNVTITIPKPTEKTVTVFYKDAEGKDIAPPKSVTGKIGAPYQEKPLDISGYVFTKDSGNAEGTMTEETKDIYFYYRLGELYFKEAPKQITFGTEKIRNQPLIKLGHPTEGLKVVDERNANNWRLQLKQTQPLTNDSIVMPDVFSFVSTAGSSQITNEAITLLESNQKGETDLTALLDESKQQGIQINVPVAYQRVGTFKARLSWALEDVPGN”, the protein production result was “failed”.
